Results reported in a protein production outcome set (Wang et al. 2014).

assay: label from the status in PepcDB records

Sequence | protein production
MAPLRTKAVEVLQRNSRGAFTVPAHGLYPYQWLWDSAFIALGWTQVDWERAWQELLCLFDYGQGPDGMLPHIVFHEQSRDYFPGPDVWGREARAQPATSGITQPPVVATVVRYLYEKDPDRDRARERARYLFPKLLAFHRWLYHARDPYRTGLVVIVHPWESGMDNSPAWDKPLSRVPVENLPPYERRDVKHVNPEERPRKEDYDRYLSLLYLFRRLEYDPREIYRQSPFKVVDVGFNAILQRANRDLYALAVLLQEDPYEIEEWIVRGEVGLEALWDREAGFYFSWDLVAGEPIAVKTSAGFLPLFAGTPHQGRASLLAQEAERWGEKARYLLPSVDPTSPFFEPGRYWRGPVWINVNWMVAEGFRDYGFAALAARLKADALALMEREGFREYYDPLTGQGRGGEGFSWSAALALFWTR | not failed
MAPRKRNPNGSGSIWQRKDGRYEARVYVPQPDGTRKRKTVYGTTWEECDTKRQELVLRDRQGIPTPTRSAKLSEWLPYWLKHYVEPRRKLSTYDKYEVQVRLYLVPLLGTRRLESLSVADVRRFITRVQNAHTAATAKESHRVLRTALTAAVREELITRNVASLVEPPRVKQREIRPWSLEETLSFLEAARSDPLYAAFVLAIAMGLRRGELGGLRWSDVDLDNRVVHVRQQTQRRRGTLYDDDPKSRRIRVVPMPALCIAPLRWHRLRQRETFARTGVAWCEAGYVFATRNGRPVEPRNVYRSFTRVAADAGLRVVRLHDARHGCATLLTAAGVAPRVIMEILGHSQISITMDVYTHVVHDTQREAISHMDRLLKRRLPTSLSGGAGSIEFP | failed
MAQADTPAPVARLPRRRGIELALILMAVLLSVFGYCNVGLAQHDALPPGAAGYGAGLGVLALLAHLAVRLRAPYADPLLLPIGVLLNGLGLVLIYRLDLETPGDRAAPTQLVWSTLGVALFIVVVLLLRDHRVLQRYAYVCVAAALALLTVPIFFPAVNGARIWIRIEGFSIQPGEFAKVLLAVFFAAYLAANRSALAYAGRRVWRLQLPTGRVLGPILAVWLVSVGVLVLERDLGTSLLFFGLFVVLLYVATGRTGWIAVGLLLASLGAVAVGWLEPHVHSRVEDWLHPFASIEAGHGPNQLAQSLFAFAAGGVTGTGLGLGHSVLIGFAVKSDFILATAGEELGFLGLSAVFLLYGLLVERGYRAGLGARDPFGRLLAVGLSSIVALQVFVIAGGVTGLIPLTGMAMPFLAQGGSSVVTNWAIVALLIRVSHAARSQAGGRAEP | failed
MAQIISNAAVGRTLLILLLCAGVFFFIDFLVPALAALIICFSSWPLYKKLLVKCGGRSAVAASIALVLIVLGLITPLIFVFSYALQEIRIWAEWLVYANQHGAPVPLWIKDLPWVGEWLTLQWQQFIGEPHELGQIVSAISGQNLTGISRWVLQLGWNTLGLLLTLLFMLITLFFLYKDGESVAKQVDVVGERILPARWYRFSRVVPATVSSTVIGMTLIAIGEGIVLGIAYWIAGVPSAVAFGVLTAFMALIPGGAPTMFTLISLYLVGTGDMTAGVGLFLWGSIELFIVDKTLRPNLVGGPIKLPFLPTFFGLIGGVKTMGFVGLFVGPVLMALLVAIWREWLRDDPDTFVMPESLAPETLEADKVQRRLD | failed
MAQISQLSAVILAGGLARRMNGNEKGLCLLHQQPLISHILARLTPQVCTIYFNINRSFATYQQLYPQLTYYSDKIADFQGPLSGILSGFEKIDSEYLLFVPCDTPFLPKNLVTKLTNSLIMNEATIAYAHDGEQAHPTIALIHRSITPALASYLASGERRLYHFFKTQKSIAVDFSDQKNAFQNFNSLADLEQFSTISATRVDQSRLLGITGYSGTGKTTLLEKLIPILTANGIKVGLIKHSHHNVDIDKNGKDSHRLRTAGANPTIIVCQQRWALMTETPQQAVDFQQLITKFDPESVDLILVEGFKDEQFAKIQLHRQVIKKPLPELDEWTIATATDYPIARPNLLDINQIDKIADFIQQWLNN | failed
MAQKVEAGGGAGGASWDDGVHDGVRKVHVGQGQDGVSSINVVYAKDSQDVEGGEHGKKTLLGFETFEVDADDYIVAVQVTYDNVFGQDSDIITSITFNTFKGKTSPPYGLETQKKFVLKDKNGGKLVGFHGRAGEALYALGAYFATTTTPVTPAKKLSAIGGDEGTAWDDGAYDGVKKVYVGQGQDGISAVKFEYNKGAENIVGGEHGKPTLLGFEEFEIDYPSEYITAVEGTYDKIFGSDGLIITMLRFKTNKQTSAPFGLEAGTAFELKEEGHKIVGFHGKASELLHQFGVHVMPLTN | failed
MAQTDKHYFGTLLAQTSRAWRAELDRRLSHLGLSQARWLVLLHLARHRDSPTQRELAQSVGVEGPTLARLLDGLESQGLVRRLAVAEDRRAKHIVLTPKADVLIADIEAIAASVRNDVLTGIDESEQALCQQVLLRILANLENR | not failed
MARGDEGGENMIKIYTLGGYEEVGKNMTAVEYEGEVVIIDMGIRLDRVLIHEDVEFQKMSSKDLRKLGAIPDDRPIRDKKVVAIALSHGHLDHIGAVGKLAPHYPDVPIYGTPYTIRLAKSEIKGEEYFEVTNPLYETNYGEIVQVSENLAIEFVQVTHSIPHSSIVVIHTPEGAVVYACDYKFDNNHPYGEKPDYKRLKELGKEGVKVLIAESTRVAEETKTPSEAVAKMLLEDFFLYEGMEADGLIATTFASHIARLQELIEIANKMGRQAIFIGRSLAKYTGIAKQLGLIKMKGSRVLRSPNAVSKVLKEVSQARENYLLIVTGHQGEPGAILTRMANGELYDIGPRDTVVFSAGVIPNPLNIAQRYALETKLKMRGVRMIKDLHVSGHASKEDHRYLIRMLNPEYIVPAHGEFRMLTHYAELAEEEGYRIGKDVFISRNGHIVEII | failed
MARNKGWVGATCCFLLFTVVFLSQKIEVSEVAVNDGLRGSPGMLLFLLPGMVACFLSARGRLLYPLFGALAAMPVCLLLLHLWNTPMRSFWQELAYVMSAVFWCVLGAMGVLCLRSLYRRYLR | not failed
MARPAKLAKISDLFCCTTCPAIDDTCVAPCEGEAPQPFQLHDIPCPPGLHTNLIEPPDMTQNIYDDPIFFQAYSQMGRSLGGLDAAPEWPALQALLPPMNGLRVLDLGCGYGWFSRWASEHGARQVVGLDVSQKMLATARATTSAPNVQYQQEDLEQLRLPACSFDLAYSSLALHYIKDLPGLFAQVYAALVPGARLVFSIEHPIFMAPRNPGWQVDAQGRQSWPVDSYQQEGERVTDWLAEGVIKQHRTLGTLLNTLIDTGFNLRHVQEWGPTAQQIEDLPALAEERERPMLLLVAAQR | failed
MARPHFALTSVFLASSVSLSAFGFSLPARAQSEDVAQKCQQPIKSVEASFAACTAAIDTGALSGKALAGAYIKRGFLRTRQRDLVGAEADLDAAIKANPDAADAYTTRANFWNVSGKPERALADADQAIKLDPNLPLAHFVRGSAELKLGHDDRAIADYSRAIELRPKESGEVYAVRGFAYHRKGDDIRAVADYTEALKAAPEDVGTLLNRGDARRNLRDTAGAAADYSEAIKLAPGNAGGFKGRGFIRLLTQDTGGAVADFTEAIRLSPSESGLYLNRASALGLQNQSLLALADEDMAIRLEPQHPLAYVNRAETLKLLGDKVAARASVTKALQLAPGFPPAVEVLKKLGEPKRSKEPSSEAAQEAYRRCTFPVTDLGPGEEGIKQIIKVCTLLVTAQGGSDANRALVHLQRGSMYRRQGDYQHALIDFSESLRYDPESALAYTGRGNAYRGLKLLDQALADHTEAIRLDPKYATAYNNRGNVWRDKNDLAKAIADFDRAIAISPNYAMAYFNRGNSRLESGDKEGAVADFQQTVKLSPQFKEAAERLQELGVRM | failed
MARPNFRYTHYDLKELRAGTTLEISLSSVNNVRLMTGANFQRFTELLDFKYLGGVAKKSPIRIAVPETMHWHLIIDAEGHSGLAESSVKMLPAQPQATLTRKAS | not failed
MARRYAIYDVFTERRLAGNPLAVVFEAEGLAEEAMQAIAQEFNLSETVFILRPGNAAHSARLRIFTPAHELPFAGHPTVGAAVAIAEAAYGEANSALELMQVLEESVGPVRAAVRLKPGAATFAEFDLPRKPIRLHAQLDRQEIADALALKTTQVGFENHVPSFWSAGVPFVMIPLRDVGAAASVEFDPQRWEHLAPLAEGRLAAAYLYCRGGINHTARFHARMFAPGMGLAEDPATGSAVAALSGAINFFDGLVDGHHPMLIEQGVEMGRPSFIHLHLDIAEGKIAGARIGGHAVKVAEGELAV | failed
MARVAIPSVGKDLSSMVSDRFARAEYFIIYDTESGNVEVVENTIADAHGTGPKVVQSLVSKGVEYLIASNVGRNAFETLKAAGVKVYRFEGGTVQEAIDAFSEGRLEELTTFTREG | not failed
MARVARWFLAVETVAFLGAAGVHAGVLWRGHEHARAATAETVIGVVLGLALLAAAARPRWSRRAAIGAQAFALLGTAVGLFTIAIGVGPRTAPDLAFHVAIVATLVVGLLRLARPTAGLREATP | failed
MARVLVSSPSSFFGSPLIKPSSSLRHSGVGGGGTAQFLPYRSNNNKLFTTSTTVRFSLNEIPPFHGLDSSVDIGAIFTRAESLLYTIADAAVVGADSVVTTDSSAVQKSGGWFGFISDAMELVLKILKDGLSAVHVPYAYGFAIILLTIIVKAATYPLTKQQVESTLAMQNLQPKIKAIQQRYAGNQERIQLETSRLYKQAGVNPLAGCLPTLATIPVWIGLYQALSNVANEGLFTEGFFWIPSLGGPTSIAARQSGSGISWLFPFVDGHPPLGWYDTVAYLVLPVLLIASQYVSMEIMKPPQTDDPAQKNTLLVFKFLPLMIGYFALSVPSGLSIYWLTNNVLSTAQQVYLRKLGGAKPNMDENASKIISAGRAKRSIAQPDDAGERFRQLKEQEKRSKKNKAVAKDTVELVEESQSESEEGSDDEEEEAREGALASSTTSKPLPEVGQRRSKRSKRKRTV | failed
MARVQIDLPDKFIYSTKLQVRIGDVAAGFHMGNHMLISYLNEALLLFFREAGVIGMFGTKMNLIDADLAVIYKTEAAHGDMLRVDLGIIPSGIYGFDAFYRVTNERTGEEIAIAKMAMLFFDYEQRQISPVPEAFTVALPKIYNRAIPSTE | failed
MARVTVMIPTQRRPDGLAVAARSVFGQVGVDFAELELVIVDNDQVPSAKPVADALRKGAPCPVIYVNEKRPGVAFARNAGMARASGDFIAFLDDDEEAPSGWLAALLAAQERYDADVVFGPVKARAPAHIDQHRDYLERFFSRIGPAQAGVIDYHYGCGDSLIRRSALPDPVAPFAVERNFIGGEDDLLFGHMGAAGKRFAWEPAAWVWEDPVPSRLNLGYTIQRAFAYGQGPSAHCAAAEPRDNLGVARWMLIGVGQAAVFGLVAAVKWAVRAKDRAEWLDRAARGLGKTFWWGPFKIQFYGRTA | failed
MASADEKVVEEKASVISSLLDKAKGFFAEKLANIPTPEATVDDVDFKGVTRDGVDYHAKVSVKNPYSQSIPICQISYILKSATRTIASGTIPDPGSLVGSGTTVLDVPVKVAYSIAVSLMKDMCTDWDIDYQLDIGLTFDIPVVGDITIPVSTQGEIKLPSLRDFF | not failed
MASIQKLGNGWRYRVSYKDAGKYKTKTKGGFRTKKECELAAAELEKKLHVGMDISAGDRLFAEYMRTWFELYQNGKHSPEHDRNIERSVKLVEEHFPGVKMKELTREMYQKFINEISPKYATDTVKKRHTYIKACLQEAIQEGIIFKDPTYKVIIKGKKDTKNEELKYLNFNEVQKLVAETKKDLRPRYISRYVILFAIATGARFSEIMGITWDCVDFKNRTITINKTWDFKDTNDFSDTKNYASKRTITIDTETVDMLQTLKSEQNKKALQTGLRNKKNLVFVNTKMQLVSNNAVNKTLRTLCKAAKIKEITCHGLRHTHASMLLYKGVNIKYISRRLGHKDIVTTLQTYSHILDEMEQVESRVVDDTMKEIHGAKFVQKNF | failed
MASKSGSGGLREPPNEQAVLNMYEGKRSELSQIYSNITDLEMQVSEHSLVINAIQPLDQSRKCFRMIGGVLVERTIKEVLPAVQRNKDGLEEVVRKLYETLEKKKKDLTEFEAKYKIRITKQEDNKEGGNKKEGNAQGVLVGAASSSQ | failed
